{
  "source": "patent US20040071717A1",
  "binders": {"B1": {"name": "recombinant Pla I 1 allergen, variant 0101 (rPla I 1.0101), expressed in Pichia pastoris (protein)", "chain": "ETQTSHPAKFHVEGEVYCNVCHSRNLINELSERMAGAQVQLDCKDDSKKVIYSIGGETDQDGVYRLPVVGYHEDCEIKLVKSSRPDCSEIPKLAKGTIQTSKVDLSKNTTITEKTRHVKPLSFRAKTDAPGC", "modifications": "partly N-glycosylated (glycosylated 22 kDa and non-glycosylated 17 kDa forms; potential N-glycosylation site at position 107)"}},
  "biological_target": "specific IgE from a pool of sera from plantain-allergic patients",
  "experiment": "inhibition ELISA: nPla I 1 coated on plate, pooled-serum IgE inhibited by rPla I 1.0101, detection with HRP-labeled anti-human IgE",
  "data": [
    {"binder": "B1", "values": [
      {"measurement": "% inhibition of IgE-binding", "value": 80, "unit": "%"}
    ]}
  ]
}
